Blank lines part the entries; values can stand above or below the binder they belong to.
What was measured:
[1] = biological target: T1, human NgR1 receptor expressed on COS7 cells (human, UniProt Q9BZR6 27-447); assay: mutant AP-Sp35 construct tested for NgR1 binding
T1 construct: whole, on cells; also called Nogo receptor-1; nogo receptor-1
T1 sequence (looked up): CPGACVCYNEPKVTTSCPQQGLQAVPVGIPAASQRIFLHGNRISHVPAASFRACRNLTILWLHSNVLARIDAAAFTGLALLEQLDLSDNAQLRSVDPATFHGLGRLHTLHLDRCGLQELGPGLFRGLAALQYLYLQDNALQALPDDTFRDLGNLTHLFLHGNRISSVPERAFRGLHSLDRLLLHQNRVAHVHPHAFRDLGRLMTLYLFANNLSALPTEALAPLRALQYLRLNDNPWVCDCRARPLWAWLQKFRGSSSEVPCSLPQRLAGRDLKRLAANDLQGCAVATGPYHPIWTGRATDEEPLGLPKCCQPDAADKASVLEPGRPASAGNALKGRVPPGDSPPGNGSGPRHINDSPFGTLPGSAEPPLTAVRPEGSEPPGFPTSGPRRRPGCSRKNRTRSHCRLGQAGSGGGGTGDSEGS

[2] = biological target: His-AP-Sp35 fusion protein (His-tagged alkaline phosphatase fused to the extracellular domain of Sp35, a.a. 34-532) (human) (UniProt P05187); assay: competition ELISA; AP-Sp35 pre-incubated with 100-fold excess of soluble sNgR344-Fc, immobilized sNgR344-Fc
[3] = biological target: T1, human NgR1 receptor expressed on COS7 …; assay: AP-Sp35 titration on NgR1-transfected COS7 cells, AP activity with 4-nitrophenyl phosphate

fold drop in signal (against the unmutated construct) [1]: > 10 fold
B1: His-AP-Sp35 (34-532) with amino acid 456 mutated from arginine to glutamic acid and amino acid 458 from histidine to valine (other)
chain: TGCPPRCECSAQDRAVLCHRKRFVAVPEGIPTETRLLDLGKNRIKTLNQDEFASFPHLEELELNENIVSAVEPGAFNNLFNLRTLGLRSNRLKLIPLGVFTGLSNLTKLDISENKIVILLDYMFQDLYNLKSLEVGDNDLVYISHRAFSGLNSLEQLTLEKCNLTSIPTEALSHLHGLIVLRLRHLNINAIRDYSFKRLYRLKVLEISHWPYLDTMTPNCLYGLNLTSLSITHCNLTAVPYLAVRHLVYLRFLNLSYNPISTIEGSMLHELLRLQEIQLVGGQLAVVEPYAFRGLNYLRVLNVSGNQLTTLEESVFHSVGNLETLILDSNPLACDCRLLWVFRRRWRLNFNRQQPTCATPEFVQGKEFKDFPDVLLPNYFTCRRARIRDRKAQQVFVDEGHTVQFVCRADGDPPPAILWLSPEKVLVSAKSNGRLTVFPDGTLEVRYAQVQDNGTYLCIAANAGGNDSMPAHLHVRSYSPDWPHQPNKTFAFISNQPGE
notes: also called Sp35 construct in which residues R at 456 and H at 458 were changed into E and V; not shown: N-terminal His tag and alkaline phosphatase (AP) reporter of the His-AP vector, with any junction residues

percent competition of binding [2]: 80%
B2: sNgR344-Fc (rat NgR1 peptide 35-344 fused to the rat IgG1) (Fc fusion, UniProt Q99M75 35-344, looked up, not shown: a dimerising Fc or GST)
chain: NEPKVTTSCPQQGLQAVPTGIPASSQRIFLHGNRISYVPAASFQSCRNLTILWLHSNALAGIDAAAFTGLTLLEQLDLSDNAQLRVVDPTTFRGLGHLHTLHLDRCGLQELGPGLFRGLAALQYLYLQDNNLQALPDNTFRDLGNLTHLFLHGNRIPSVPEHAFRGLHSLDRLLLHQNHVARVHPHAFRDLGRLMTLYLFANNLSMLPAEVLVPLRSLQYLRLNDNPWVCDCRARPLWAWLQKFRGSSSEVPCNLPQRLAGRDLKRLAASDLEGCAVASGPFRPFQTNQLTDEELLGLPKCCQPDAADKA

EC50 [3]: ~6 nM
B3: His-AP-Sp35 fusion protein (His-tagged alkaline phosphatase fused to the extracellular domain of Sp35, a.a. 34-532) (other, human)
chain: IIPVEEENPDFWNREAAEALGAAKKLQPAQTAAKNLIIFLGDGMGVSTVTAARILKGQKKDKLGPEIPLAMDRFPYVALSKTYNVDKHVPDSGATATAYLCGVKGNFQTIGLSAAARFNQCNTTRGNEVISVMNRAKKAGKSVGVVTTTRVQHASPAGTYAHTVNRNWYSDADVPASARQEGCQDIATQLISNMDIDVILGGGRKYMFRMGTPDPEYPDDYSQGGTRLDGKNLVQEWLAKRQGARYVWNRTELMQASLDPSVTHLMGLFEPGDMKYEIHRDSTLDPSLMEMTEAALRLLSRNPRGFFLFVEGGRIDHGHHESRAYRALTETIMFDDAIERAGQLTSEEDTLSLVTADHSHVFSFGGYPLRGSSIFGLAPGKARDRKAYTVLLYGNGPGYVLKDGARPDVTESESGSPEYRQQSAVPLDEETHAGEDVAVFARGPQAHLVHGVQEQTFIAHVMAFAACLEPYTACDLAPPAGTTDAAHPGTGCPPRCECSAQDRAVLCHRKRFVAVPEGIPTETRLLDLGKNRIKTLNQDEFASFPHLEELELNENIVSAVEPGAFNNLFNLRTLGLRSNRLKLIPLGVFTGLSNLTKLDISENKIVILLDYMFQDLYNLKSLEVGDNDLVYISHRAFSGLNSLEQLTLEKCNLTSIPTEALSHLHGLIVLRLRHLNINAIRDYSFKRLYRLKVLEISHWPYLDTMTPNCLYGLNLTSLSITHCNLTAVPYLAVRHLVYLRFLNLSYNPISTIEGSMLHELLRLQEIQLVGGQLAVVEPYAFRGLNYLRVLNVSGNQLTTLEESVFHSVGNLETLILDSNPLACDCRLLWVFRRRWRLNFNRQQPTCATPEFVQGKEFKDFPDVLLPNYFTCRRARIRDRKAQQVFVDEGHTVQFVCRADGDPPPAILWLSPRKHLVSAKSNGRLTVFPDGTLEVRYAQVQDNGTYLCIAANAGGNDSMPAHLHVRSYSPDWPHQPNKTFAFISNQPGE
notes: Order His-AP-Sp35 as in the name; also called alkaline phosphatase-Sp35 conjugate; His-AP-Sp35 (34-532); not shown: His tag
